Assays:
[1] = target: the molecule itself; assay: SEC; MBP-DFCP1 (112-415) constructs on HiLoad 26/600 Superdex 200 pg; 25 mM Tris pH 8.0, 150 mM NaCl, 1 mM MgCl2, 1 mM DTT; monomer and dimer peaks
[2] = target: the molecule itself; assay: SEC; full-length FLAG-DFCP1 on Superose 6; 25 mM Tris pH 8, 150 mM NaCl, 1 mM DTT, 1 mM MgCl2; monomer and dimer peaks

| Protein | binding result [1] | binding result [2] |
| --- | --- | --- |
| MBP-DFCP1 (112-415), WT NTPase domain of mouse DFCP1 (domain or fragment, UniProt Q810J8 112-415, looked up, Mouse DFCP1, UniProt Q810J8, residues 112-415 (NTPase domain, 98.8% identical to human DFCP1), in pMal-c2e; MBP was removed with TEV protease only after the SEC step, for the nucleotide hydrolysis assays; also called WT (112-415); DFCP1 NTPase domain; source: E. coli Rosetta (DE3), purified (amylose resin, Superdex 200 SEC); not shown: MBP, N-terminal, kept) NKRRHPITVYLVSKVQESLEGEEMDEETKRKKMTERVVSFLLVDENEEIQVTNEEDFIRKLDCKPDQHLKVVSIFGNTGDGKSHTLNHTFFYGREVFKTSPAQESCTVGVWAAYDPVHKVAVIDTEGLLGATVNLSQRTRLLLKVLAISDLVIYRTHADRLHNDLFKFLGDASEAYLKHFTKELKATTARCGLDVPLSTLGPAVIIFHETVHTQLLGSDHPSEAPEKLIQDRFRKLGRFPEAFSSIHYKGTRTYNPPTDFSGLRRALEQLLENNTTRSPRHPGVIFKALKALSDRFSGEIPDDQ | binds |  |
| MBP-DFCP1 (112-415) K193A/R266Q (domain or fragment, mouse, UniProt Q810J8 112-415, looked up, Mouse DFCP1, UniProt Q810J8, residues 112-415 (NTPase domain) with both K193A and R266Q, in pMal-c2e; also called KARQ; KA/RQ; source: E. coli Rosetta (DE3), purified (amylose resin, Superdex 200 SEC); not shown: MBP, N-terminal, kept) NKRRHPITVYLVSKVQESLEGEEMDEETKRKKMTERVVSFLLVDENEEIQVTNEEDFIRKLDCKPDQHLKVVSIFGNTGDGASHTLNHTFFYGREVFKTSPAQESCTVGVWAAYDPVHKVAVIDTEGLLGATVNLSQRTRLLLKVLAISDLVIYQTHADRLHNDLFKFLGDASEAYLKHFTKELKATTARCGLDVPLSTLGPAVIIFHETVHTQLLGSDHPSEAPEKLIQDRFRKLGRFPEAFSSIHYKGTRTYNPPTDFSGLRRALEQLLENNTTRSPRHPGVIFKALKALSDRFSGEIPDDQ | binds |  |
| MBP-DFCP1 (112-415) R266Q (domain or fragment, mouse, UniProt Q810J8 112-415, looked up, Mouse DFCP1, UniProt Q810J8, residues 112-415 (NTPase domain) with R266Q, in pMal-c2e; R266Q is a cancer-related mutation found in human patients (endometrial and colorectal cancers); Here it was introduced into the mouse NTPase domain by mutagenesis; also called RQ; RQm/RQd (monomeric/dimeric states); source: E. coli Rosetta (DE3), purified (amylose resin, Superdex 200 SEC); not shown: MBP, …) NKRRHPITVYLVSKVQESLEGEEMDEETKRKKMTERVVSFLLVDENEEIQVTNEEDFIRKLDCKPDQHLKVVSIFGNTGDGKSHTLNHTFFYGREVFKTSPAQESCTVGVWAAYDPVHKVAVIDTEGLLGATVNLSQRTRLLLKVLAISDLVIYQTHADRLHNDLFKFLGDASEAYLKHFTKELKATTARCGLDVPLSTLGPAVIIFHETVHTQLLGSDHPSEAPEKLIQDRFRKLGRFPEAFSSIHYKGTRTYNPPTDFSGLRRALEQLLENNTTRSPRHPGVIFKALKALSDRFSGEIPDDQ | binds |  |
| MBP-DFCP1 (112-415) K193A (domain or fragment, mouse, UniProt Q810J8 112-415, looked up, Mouse DFCP1, UniProt Q810J8, residues 112-415 (NTPase domain) with K193A, in pMal-c2e; also called KA; K193A NTPase domain; source: E. coli Rosetta (DE3), purified (amylose resin, Superdex 200 SEC); not shown: MBP, N-terminal, kept) NKRRHPITVYLVSKVQESLEGEEMDEETKRKKMTERVVSFLLVDENEEIQVTNEEDFIRKLDCKPDQHLKVVSIFGNTGDGASHTLNHTFFYGREVFKTSPAQESCTVGVWAAYDPVHKVAVIDTEGLLGATVNLSQRTRLLLKVLAISDLVIYRTHADRLHNDLFKFLGDASEAYLKHFTKELKATTARCGLDVPLSTLGPAVIIFHETVHTQLLGSDHPSEAPEKLIQDRFRKLGRFPEAFSSIHYKGTRTYNPPTDFSGLRRALEQLLENNTTRSPRHPGVIFKALKALSDRFSGEIPDDQ | binds |  |
| full-length FLAG-DFCP1 (human double FYVE domain-containing protein 1) (natural protein, UniProt Q9HBF4 1-777, looked up, Human DFCP1 (ZFYVE1), UniProt Q9HBF4, full length; A TEV site lies between FLAG and DFCP1; no cleavage is described for this protein; The domain diagram gives 1-777 for the full-length protein; also called FL DFCP1; FL hsDFCP1; not shown: FLAG, N-terminal, kept) MSAQTSPAEKGLNPGLMCQESYACSGTDEAIFECDECCSLQCLRCEEELHRQERLRNHERIRLKPGHVPYCDLCKGLSGHLPGVRQRAIVRCQTCKINLCLECQKRTHSGGNKRRHPVTVYNVSNLQESLEAEEMDEETKRKKMTEKVVSFLLVDENEEIQVTNEEDFIRKLDCKPDQHLKVVSIFGNTGDGKSHTLNHTFFYGREVFKTSPTQESCTVGVWAAYDPVHKVAVIDTEGLLGATVNLSQRTRLLLKVLAISDLVIYRTHADRLHNDLFKFLGDASEAYLKHFTKELKATTARCGLDVPLSTLGPAVIIFHETVHTQLLGSDHPSEVPEKLIQDRFRKLGRFPEAFSSIHYKGTRTYNPPTDFSGLRRALEQLLENNTTRSPRHPGVIFKALKALSDRFSGEIPDDQMAHSSFFPDEYFTCSSLCLSCGVGCKKSMNHGKEGVPHEAKSRCRYSHQYDNRVYTCKACYERGEEVSVVPKTSASTDSPWMGLAKYAWSGYVIECPNCGVVYRSRQYWFGNQDPVDTVVRTEIVHVWPGTDGFLKDNNNAAQRLLDGMNFMAQSVSELSLGPTKAVTSWLTDQIAPAYWRPNSQILSCNKCATSFKDNDTKHHCRACGEGFCDSCSSKTRPVPERGWGPAPVRVCDNCYEARNVQLAVTEAQVDDEGGTLIARKVGEAVQNTLGAVVTAIDIPLGLVKDAARPAYWVPDHEILHCHNCRKEFSIKLSKHHCRACGQGFCDECSHDRRAVPSRGWDHPVRVCFNCNKKPGDL |  | binds |

Source: PMC9881219, “The NTPase activity of the double FYVE domain–containing protein 1 regulates lipid droplet metabolism” (The Journal of Biological Chemistry, 2022)
